From the nanobody polyreactivity screen of Harvey et al. (2022)

Experiment: yeast display, Sf9 membrane polyspecificity reagent, FACS + sequencing; frameworks hold sequencing errors
In short: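 Sorting gates, low and high (top ~1%), were placed on anti-HA fluorescence to track expression and on streptavidin fluorescence to track reagent binding. A clone's polyreactivity label is taken from the gate it came out of. The reagent was 10% biotinylated, detergent-solubilized Sf9 membrane, applied for 1 hour at 4 °C to galactose-induced yeast display cells.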

Sequence	polyreactivity (PSR sort gate)
QVQLVESGGGLVQAGGSLRLSCAASGIIYKYAMGWYRQAPGKERELVATITWSDGSTYYADSVKGRFTISRDNAKNTVYLQMNSLKPDDTAVYYCAADDYYGYDYWGQGTQVTVSS	low polyreactivity
QVQLVESGGGLVQAGGSLRLSCAASGIIYYENTMGWYRQAPGKERELVAPINSGGSTYYADCVKGRFTISRDNAKNTVYLQMNSLKPEDTAVYYCAADDYSGLYYSSTYRYEYWGQGTQVTVSS	low polyreactivity
QVQLVESGGGLVQAGGSLRLSCAASGINFDDYVMGWYRQAPGKERELFAAISSSGGSTYYADSVKGRFTISRDNAKNTVYLQMNSLKPEDTAVYYCAADYGSYGVVRAVSIEYEYWGQGTKVTVSS	low polyreactivity
QVQLVESGGGLVQAGGSLRLSCAASGINFPRYMGWYRQAPGKERELVAAIRWSSDDTNYADSVKGRFTISRDNAKNTVYLQMNSLKPEDTAVYYCAADSYYDRTIQFEFSASTYDYWGQGTQVTVSS	low polyreactivity
QVQLVESGGGLVQAGGSLRLSCAASGINFRLNAMGWYRQAPGKERELVAAIRRRGGSTYYADSVKGRFTISRDNAKNTVYLQMNSLIPEDTAVYYCAKDPHGSDFGYWGQGNQVTVSS	low polyreactivity
QVQLVESGGGLVQAGGSLRLSCAASGINFRTYAMGWYRQAPGKERELVAAINSDGSTYYADSVKGRFTISRDNAKITVYLQMNSLKPEDNAVYYCAAVVWRIHAYYWAVDGWYYYWGQGTQVTVSS	high polyreactivity
QVQLVESGGGLVQAGGSLRLSCAASGINFSFYTMRWYRQAPGIERELVAAISSGGDTYYADSVNGRFTNSRDNAKNTVYLQMNSLKPEVTAVYYCAVDQYDRTTAFCYWYPYYYWGQGTQVTVSS	low polyreactivity
QVQLVESGGGLVQAGGSLRLSCAASGINFVLYAMGWYRQAPGKERELVAAITSGGRTYYADSVNGRFTISRDNAKNTVYLQMISLKPEDTAVYYCADNYFTQRLWFDYWGQGTQVSVSS	high polyreactivity
QVQLVESGGGLVQAGGSLRLSCAASGINFWYYAMVGYRQATGKERELDAAITGGSTYYADSVKGRFTISRDNAKNTVYLQMISLKQEDTAVYYCNADSVFEYWDYDYWGQGTQVTVSS	low polyreactivity
QVQLVESGGGLVQAGGSLRLSCAASGINFYYYTMGWYRQAPGKERELVAGITRGGRTYYADSVKGRFTISRDNAKNTVYLQMNSLKPEDTAVYYCNADPWWRFDYWGQGTQVTVSS	low polyreactivity
QVQLVESGGGLVQAGGSLRLSCAASGISFRRYTMGSYRQAPGKERELVDTISLSDGNTYYADSVKGRFTISRDNAKNTVYLQMNSMKPEDTAVYYCNARHTWHQSYDYWGQGTQVSVSS	low polyreactivity
QVQLVESGGGLVQAGGSLRLSCAASGISFSYYAMGLCRQAPGKERELVAAISISGGRTYYADSVKGRFTISRDNAKNTVYLQMNSLKPEDTAVYYCASCVGSRIKQVGNDYWGQVTQVTVSS	high polyreactivity
QVQLVESGGGLVQAGGSLRLSCAASGITFADNAMGWYRPAPGKERELVAAITSGGSTYYADSVKGRFTISRDNAKNTVYLQMNSLKPEDTAVYYCNVRVRRLFYWARLVAYDYWGQGTQVTVSS	high polyreactivity
QVQLVESGGGLVQAGGSLRLSCAASGITFADNAMGWYRQAPGKERELVAANSWSGDRTFYADSVKGRFTISRDNAKNTVYLQMNSLKPEDTAVYYCARDSLQVFYPYASDDYWGQGTQVTVSS	low polyreactivity
QVQLVESGGGLVQAGGSLRLSCAASGITFAGYAMGWYRQAPGKERELVAAISRGGSTYYADSVKGRFTISRDNAKNTVYLQMNSLKPEDTAVYYCNTDDQQGYFTYTGWNYNYWGQGTQVTVSS	high polyreactivity
QVQLVESGGGLVQAGGSLRLSCAASGITFARYAMGWYRQAPGKERELVAAISRNAGRTYYADSVKGRFTISRDNAKNTVYLQMNSLKPEDTAVYYCAAVTKSSVPGSRYDYWGQGTQVTVSS	high polyreactivity
QVQLVESGGGLVQAGGSLRLSCAASGITFARYAMGWYRQAPGKERELVAAISSRGGRTYYADSVKGRFTISRDNAKNTVYLQMNSLKPEDTAVYYCAADYVWSTISGYWGQGTQVTVSS	high polyreactivity
